In PMC11570472, “Activity and phosphatidylcholine transfer protein interactions of skeletal muscle thioesterase Them2 enable hepatic steatosis and insulin resistance” (The Journal of Biological Chemistry, 2024):

Target: the molecule itself
Experiment: SEC; purified recombinant protein (100 uM) on an analytical Superdex 75 10/300 column, 0.5 ml/min, UV absorbance at 280 nm

Protein	stoichiometry N
His-tagged WT mouse Thioesterase superfamily member 2 (Them2), purified recombinant (enzyme, UniProt Q9CQR4 1-140, looked up, also called WT Them2; acyl-CoA thioesterase 13) MSSMTQNLREVMKVMFKVPGFDRVLEKVTLVSAAPEKLICEMKVEEQHTNKLGTLHGGLTATLVDSISTMALMCTERGAPGVSVDMNITYMSPAKIGEEIVITAHILKQGKTLAFASVDLTNKTTGKLIAQGRHTKHLGN	4
His-tagged N50A/D65A mouse Them2, purified recombinant (enzyme, UniProt Q9CQR4 1-140, looked up, also called N50A/D65A Them2) MSSMTQNLREVMKVMFKVPGFDRVLEKVTLVSAAPEKLICEMKVEEQHTAKLGTLHGGLTATLVASISTMALMCTERGAPGVSVDMNITYMSPAKIGEEIVITAHILKQGKTLAFASVDLTNKTTGKLIAQGRHTKHLGN	4
